B1: mRNA-splicing (parent)
chain: AGUUGCUGCUGGGAGCUCCAGCACAGUGAAAUGGACAGAAGGGCAGAGCAA

Variants of: B1
Test: exon inclusion enrichment index; higher = more inclusion; WT1 exon 5 minigene, HEK293

| Variant | exon inclusion enrichment index |
| --- | --- |
| C6A U7C G8C U10C | 2.08 |
| C6A U7C C9A U10C G43U C44U | 1.21 |
| C6A U7C C9A U10C G43U C44G | 0.567 |
| C6A U7C C9A U10C G43U C44A | 0.0402 |
| G8C C9G | 0.884 |
| G8C C9A | 0.365 |
| G8C C9U | 0.216 |
| C6A U7C C9A U10G G11A | 2.06 |
| C6A U7C C9A U10G G11C | 2.72 |
| C6A U7C C9A U10G G11U | 2.09 |
| G11U | 2.22 |
| G11C | 2.05 |
| G11A | 0.618 |
| C6A U7C C9A U10C U17C C18U | 3.39 |
| C6A U7C C9A U10C U17C C18G | 3.74 |
| C6A U7C C9A U10C U17C C18A | 3.17 |
| U7C U10C | 2.76 |
| C6A U7C C9A U10C G41C G42A | 2.74 |
| C6A U7C C9A U10C G41C G42U | 3.52 |
| C6A U7C C9A U10C G41C G42C | 3.48 |
| C6U U7G C9A | 0.522 |
| C18A C19G | 0.352 |
| C18A C19U | 0.121 |
| C18A C19A | 0.547 |

| Variant | exon inclusion enrichment index |
| --- | --- |
| C6G G8U C9U | 0.101 |
| C6A U7C G8U C9G U10C | 1.91 |
| C6U U7A C9A U10C | 0.322 |
| C6U U7A C9A U10A | 0.0567 |
| C6A U7C G8A C9G U10C | 1.39 |
| C9A | 1.96 |
| C9U | 1.36 |
| C9G | 0.154 |
| U17C C18G | 0.369 |
| U17C C18U | 1.34 |
| U17C C18A | 1.29 |
| C6A U7C C9A U10C U17C | 3.11 |
| C6A U7C C9A U10C U17G | 2.68 |
| C6A U7C C9A U10C U17A | 3.36 |
| G8C C9U U10C | 0.579 |
| C6A U7G | 0.00565 |
| G15U C16G | 0.0648 |
| G15U C16A | 0.0156 |
| G15U C16U | 0.0329 |
| C6G U7A | 0.00764 |
| C6G U7G | 0.0143 |
| C6G U7C | 0.331 |
| G13U A14G | 0.0891 |
| G13U A14C | 0.0646 |

| Variant | exon inclusion enrichment index |
| --- | --- |
| G13U A14U | 0.0193 |
| G13A A14G | 0.249 |
| G13A A14U | 0.0995 |
| G13A A14C | 0.227 |
| C6G U7A C9A U10A | 0.321 |
| C6G U7A C9A U10C | 0.641 |
| C6A U7C C9A U10C G48A | 3.5 |
| C6A U7C C9A U10C G48C | 2.99 |
| C6A U7C C9A U10C G48U | 3.83 |
| C6A U7C C9A U10C U27G G28C | 2.4 |
| C6A U7C C9A U10C U27G G28U | 0.0137 |
| C6A U7C C9A U10C U27G G28A | 3.19 |
| C6G U7A G8U C9A | 0.349 |
| U7A G8U C9A | 0.565 |
| C6A U7C C9A U10C G43A | 4.63 |
| C6A U7C C9A U10C G43C | 3.07 |
| C6A U7C C9A U10C G43U | 2.81 |
| C6A U7C C9A U10C G46U A47G | 2.8 |
| C6A U7C C9A U10C G46U A47C | 3.45 |
| C6A U7C C9A U10C G46U A47U | 3.03 |
| C6A U7C C9A U10C G42U G43C | 2.05 |
| C6A U7C C9A U10C G42U G43U | 3.65 |
| C6A U7C C9A U10C G42U G43A | 3.84 |
| C6A U7C C9A U10C U32G G33U | 1.91 |

| Variant | exon inclusion enrichment index |
| --- | --- |
| C6A U7C C9A U10C U32G G33A | 1.61 |
| C6A U7C C9A U10C U32G G33C | 3.23 |
| U10C G11C | 1.66 |
| U10C G11U | 2.21 |
| U10C G11A | 1.76 |
| U7G C9A U10C | 2 |
| U7G C9A U10A | 1 |
| G8U C9U | 0.3 |
| G8U C9G | 0.455 |
| G8U C9A | 0.386 |
| C9G U10C | 0.22 |
| C9G U10G | 0.0139 |
| C9G U10A | 0.0101 |
| C16A U17A | 0.0497 |
| C16A U17G | 0.0435 |
| C16A U17C | 0.0503 |
| C6A U7C G8U C9A U10C | 2.22 |
| C6A U7C G8U C9A U10A | 0.176 |
| C6A U7C C9A U10G | 0.756 |
| C18A | 1.5 |
| C18G | 0.287 |
| C18U | 1.27 |
| C6A U7G G8U C9A U10C | 0.407 |
| C6A U7G G8U C9A U10A | 0.0118 |

| Variant | exon inclusion enrichment index |
| --- | --- |
| C6A U7C G8C C9G U10C | 2.26 |
| C6A U7C G8U C9U U10C | 2.41 |
| C6A U7C C9A U10C U32A G33C | 3.5 |
| C6A U7C C9A U10C U32A G33U | 3.1 |
| C6A U7C C9A U10C U32A G33A | 2.07 |
| U10G G11C | 2.98 |
| U10G G11A | 2.34 |
| U10G G11U | 2.4 |
| C16G | 0.103 |
| C16U | 0.0903 |
| C16A | 0.0656 |
| C6U U7C U10C | 3.52 |
| C6U U7C G8A U10A | 0.155 |
| C6U U7C G8A U10C | 2.38 |
| G11U G12A | 0.315 |
| G11U G12C | 1.86 |
| G11U G12U | 0.755 |
| U7A C9A U10A | 0.589 |
| U7A C9A U10C | 1.94 |
| C6A U7C C9A U10C U32C G33C | 4 |
| C6A U7C C9A U10C U32C G33A | 2.3 |
| C6A U7C C9A U10C U32C G33U | 2.94 |
| C6A U7C C9A U10C G34U A35U | 1.33 |
| G8A C9A | 0.383 |

| Variant | exon inclusion enrichment index |
| --- | --- |
| G8A C9G | 0.0723 |
| G8A C9U | 0.355 |
| G13C A14G | 0.42 |
| G13C A14C | 0.19 |
| G13C A14U | 0.194 |
| U17C | 0.0839 |
| U17A | 0.131 |
| U17G | 0.247 |
| C6A U7C U10C | 3.14 |
| C6A U7C U10G | 1.66 |
| C6A U7C U10A | 0.41 |
| G13U | 0.0154 |
| G13A | 0.135 |
| G13C | 0.0504 |
| C6A U7C G8A C9A U10C | 2.62 |
| C6A U7C G8A C9A U10A | 0.265 |
| U7G G8C | 2.05 |
| U7G G8A | 2.02 |
| U7G G8U | 1.91 |
| C16U U17G | 0.211 |
| C16U U17A | 0.0567 |
| C16U U17C | 0.038 |
| C6A U7C C9A U10C G46C A47U | 2.64 |
| C6A U7C C9A U10C G46C A47C | 2.51 |

| Variant | exon inclusion enrichment index |
| --- | --- |
| C6A U7C C9A U10C G46C A47G | 3.46 |
| C6A U7C C9G U10C | 2.55 |
| C6A U7C C9G U10A | 1.39 |
| C6A U7C C9G U10G | 0.132 |
| C9A U10A | 0.914 |
| C9A U10C | 2.65 |
| C9A U10G | 0.829 |
| U7C | 0.538 |
| U7A | 0.394 |
| U7G | 0.183 |
| A14C G15C | 0.0378 |
| A14C G15U | 0.0261 |
| A14C G15A | 0.0127 |
| C18G C19G | 3.04 |
| C18G C19U | 0.777 |
| C18G C19A | 2.92 |
| C6A U7C C9A U10C G42C G43C | 3.4 |
| C6A U7C C9A U10C G42C G43U | 3.6 |
| C6A U7C C9A U10C G42C G43A | 3.52 |
| C6U U7G C9A U10A | 0.189 |
| C6U U7G C9A U10C | 1.45 |
| C6U U7C C9A U10C | 3.37 |
| C6U U7C C9A U10A | 0.879 |
